Laboratory results: the Immune Epitope Database (IEDB)

Legend:
Assay in all cases: IEDB peptide-MHC binding, purified MHC/competitive/radioactivity; filed as Kd, often an IC50 or EC50 that approximates it; ≥ and ≤ were set here for values at or beyond the usual limits of such assays
HLA-A*33:01 = molecular target: HLA-A*33:01
HLA-A*11:01 = molecular target: HLA-A*11:01
HLA-A*03:01 = molecular target: HLA-A*03:01
HLA-A*31:01 = molecular target: HLA-A*31:01
HLA-A*68:01 = molecular target: HLA-A*68:01
[1] = source organism: Lymphocytic choriomeningitis virus (strain Armstrong)
[2] = source organism: Dengue virus 2 Jamaica/1409/1983
[3] = source organism: SARS coronavirus Tor2
[4] = source organism: Vaccinia virus WR
[5] = source organism: Dengue virus 3 Martinique/1243/1999
[6] = source organism: Dengue virus 1 Brazil/97-11/1997
[7] = source organism: Mammarenavirus machupoense
[8] = source organism: Lassa virus Josiah
[9] = source organism: Mammarenavirus brazilense
[10] = source organism: Mammarenavirus juninense
[11] = source organism: Dengue virus 4 Philippines/H241/1956

IYKGVYQFK gave a Kd (HLA-A*33:01; [1]) of 13.5 nM, a Kd (HLA-A*11:01; [1]) of 718 nM and a Kd (HLA-A*03:01; [1]) of 198 nM. The Kd (HLA-A*31:01; [1]) was 3.21 nM and the Kd (HLA-A*68:01; [1]) was 8810 nM.
For RVIDPRRCMK, the Kd (HLA-A*31:01; [2]) was 4.4 nM.
With VFHLYLQYIR the Kd (HLA-A*33:01; [3]) was 174 nM, the Kd (HLA-A*11:01; [3]) was 1150 nM and the Kd (HLA-A*03:01; [3]) was 713 nM. The Kd (HLA-A*31:01; [3]) was 56.3 nM and the Kd (HLA-A*68:01; [3]) was 868 nM.
GVAMPNLYK gave a Kd (HLA-A*33:01; [3]) of 14800 nM, a Kd (HLA-A*31:01; [3]) of 1650 nM and a Kd (HLA-A*68:01; [3]) of 6.9 nM.
TSETMYLTMK gave a Kd (HLA-A*33:01; [4]) of 11000 nM, a Kd (HLA-A*11:01; [4]) of 111 nM and a Kd (HLA-A*03:01; [4]) of 1920 nM. It also gave a Kd (HLA-A*31:01; [4]) of 2000 nM and a Kd (HLA-A*68:01; [4]) of 471 nM.
In the case of NGQFIHFYR, the Kd (HLA-A*33:01; [1]) is reported as at least 50400 nM, the Kd (HLA-A*11:01; [1]) is reported as 2530 nM and the Kd (HLA-A*03:01; [1]) is reported as 8350 nM. It also gave a Kd (HLA-A*31:01; [1]) of 3.67 nM and a Kd (HLA-A*68:01; [1]) of 13.9 nM.
For ALYYVHSLLY, the Kd (HLA-A*33:01; [4]) was at least 24200 nM, the Kd (HLA-A*11:01; [4]) was 9.2 nM and the Kd (HLA-A*03:01; [4]) was 0.39 nM. The Kd (HLA-A*31:01; [4]) was 11200 nM and the Kd (HLA-A*68:01; [4]) was 2240 nM.
With ATKRYPGVMY the Kd (HLA-A*33:01; [4]) was at least 70000 nM, the Kd (HLA-A*11:01; [4]) was 164 nM and the Kd (HLA-A*03:01; [4]) was 32.8 nM. For the same sequence, the Kd (HLA-A*31:01; [4]) was 18100 nM and the Kd (HLA-A*68:01; [4]) was at least 70200 nM.
IVASVNMVSR was tested, and the Kd (HLA-A*68:01; [5]) was 6.75 nM.
With GILARWSSFK the Kd (HLA-A*11:01; [6]) was 29.4 nM and the Kd (HLA-A*03:01; [6]) was 2.06 nM.
In the case of SFGGASCCLY, the Kd (HLA-A*33:01; [3]) is reported as 3770 nM, the Kd (HLA-A*11:01; [3]) is reported as 140 nM and the Kd (HLA-A*03:01; [3]) is reported as 302 nM. For the same sequence, the Kd (HLA-A*31:01; [3]) was 2500 nM and the Kd (HLA-A*68:01; [3]) was 180 nM.
Work on LIVSLCPTKK yielded a Kd (HLA-A*33:01; [4]) of at least 70000 nM, a Kd (HLA-A*11:01; [4]) of 56.9 nM and a Kd (HLA-A*03:01; [4]) of 226 nM. The Kd (HLA-A*31:01; [4]) was 11600 nM and the Kd (HLA-A*68:01; [4]) was 350 nM.
IILFILFFAY was tested, and the Kd (HLA-A*33:01; [4]) was 2570 nM, the Kd (HLA-A*11:01; [4]) was 11100 nM and the Kd (HLA-A*03:01; [4]) was 720 nM. It also gave a Kd (HLA-A*31:01; [4]) of 1330 nM and a Kd (HLA-A*68:01; [4]) of 325 nM.
With NIRLTDTEY the Kd (HLA-A*33:01; [4]) was at least 77700 nM, the Kd (HLA-A*11:01; [4]) was at least 77900 nM and the Kd (HLA-A*03:01; [4]) was at least 78000 nM. For the same sequence, the Kd (HLA-A*31:01; [4]) was at least 77900 nM and the Kd (HLA-A*68:01; [4]) was at least 77700 nM.
For DTNLITCNDH, the Kd (HLA-A*33:01; [7]) was at least 30800 nM, the Kd (HLA-A*11:01; [7]) was at least 69700 nM and the Kd (HLA-A*03:01; [7]) was at least 70000 nM. For the same sequence, the Kd (HLA-A*31:01; [7]) was at least 70000 nM and the Kd (HLA-A*68:01; [7]) was at least 70100 nM.
Sequence LIDLAFLIK has a Kd (HLA-A*33:01; [4]) of at least 77700 nM, a Kd (HLA-A*11:01; [4]) of 462 nM and a Kd (HLA-A*03:01; [4]) of 3480 nM. For the same sequence, the Kd (HLA-A*31:01; [4]) was 2330 nM and the Kd (HLA-A*68:01; [4]) was at least 77700 nM.
For KTQFNYFKK, the Kd (HLA-A*33:01; [3]) was at least 77300 nM, the Kd (HLA-A*11:01; [3]) was 2.26 nM and the Kd (HLA-A*03:01; [3]) was 115 nM. For the same sequence, the Kd (HLA-A*31:01; [3]) was 2.32 nM and the Kd (HLA-A*68:01; [3]) was 2830 nM.
For RSCTLPPLR, the Kd (HLA-A*31:01; [2]) was 4.6 nM.
With GTVTMECSPR the Kd (HLA-A*68:01; [2]) was 89 nM.
DTPSPPEVER showed a Kd (HLA-A*68:01; [6]) of 610 nM.
With RLQMAGVEVR the Kd (HLA-A*33:01; [4]) was 4950 nM, the Kd (HLA-A*11:01; [4]) was 14700 nM and the Kd (HLA-A*03:01; [4]) was 1480 nM. For the same sequence, the Kd (HLA-A*31:01; [4]) was 118 nM and the Kd (HLA-A*68:01; [4]) was 910 nM.
Sequence EFIFSALDEK has a Kd (HLA-A*33:01; [4]) of 1630 nM, a Kd (HLA-A*11:01; [4]) of 1.42 nM and a Kd (HLA-A*03:01; [4]) of 15.5 nM. The Kd (HLA-A*31:01; [4]) was at least 70000 nM and the Kd (HLA-A*68:01; [4]) was 1.3 nM.
SFYLISIFLH gave a Kd (HLA-A*33:01; [8]) of 281 nM, a Kd (HLA-A*11:01; [8]) of 17100 nM and a Kd (HLA-A*03:01; [8]) of 1020 nM. For the same sequence, the Kd (HLA-A*31:01; [8]) was 160 nM and the Kd (HLA-A*68:01; [8]) was 3240 nM.
Sequence QQQQGQTVTK has a Kd (HLA-A*33:01; [3]) of at least 70000 nM, a Kd (HLA-A*11:01; [3]) of 492 nM and a Kd (HLA-A*03:01; [3]) of 10200 nM. The Kd (HLA-A*31:01; [3]) was at least 27800 nM and the Kd (HLA-A*68:01; [3]) was 11300 nM.
TFFIFNKLVK gave a Kd (HLA-A*33:01; [3]) of 1370 nM, a Kd (HLA-A*11:01; [3]) of 50.5 nM and a Kd (HLA-A*03:01; [3]) of 81.8 nM. For the same sequence, the Kd (HLA-A*31:01; [3]) was 1550 nM and the Kd (HLA-A*68:01; [3]) was 490 nM.
For IMAYVNQAH, the Kd (HLA-A*33:01; [9]) was at least 36000 nM, the Kd (HLA-A*11:01; [9]) was at least 26900 nM and the Kd (HLA-A*03:01; [9]) was 2210 nM. It also gave a Kd (HLA-A*31:01; [9]) of 3410 nM and a Kd (HLA-A*68:01; [9]) of at least 23500 nM.
For MSLYMAISPK, the Kd (HLA-A*33:01; [3]) was 1870 nM, the Kd (HLA-A*11:01; [3]) was 0.199 nM and the Kd (HLA-A*03:01; [3]) was 0.256 nM. For the same sequence, the Kd (HLA-A*31:01; [3]) was 69.4 nM and the Kd (HLA-A*68:01; [3]) was 10.7 nM.
With TWMSAEGAWR the Kd (HLA-A*33:01; [5]) was 375 nM and the Kd (HLA-A*31:01; [5]) was 248 nM.
AVAKCNLNH was tested, and the Kd (HLA-A*11:01; [10]) was 230 nM, the Kd (HLA-A*03:01; [10]) was 84.6 nM and the Kd (HLA-A*31:01; [10]) was 688 nM. The Kd (HLA-A*68:01; [10]) was at least 46500 nM.
With NISIISIRPR the Kd (HLA-A*33:01; [4]) was 285 nM, the Kd (HLA-A*11:01; [4]) was 866 nM and the Kd (HLA-A*03:01; [4]) was 2640 nM. It also gave a Kd (HLA-A*31:01; [4]) of 49.6 nM and a Kd (HLA-A*68:01; [4]) of 5.1 nM.
SSDSENNPEY gave a Kd (HLA-A*33:01; [4]) of at least 70000 nM, a Kd (HLA-A*11:01; [4]) of 4460 nM and a Kd (HLA-A*03:01; [4]) of at least 70100 nM. The Kd (HLA-A*31:01; [4]) was at least 70000 nM and the Kd (HLA-A*68:01; [4]) was at least 70200 nM.
In the case of ALYEQVVMDY, the Kd (HLA-A*33:01; [3]) is reported as at least 27100 nM, the Kd (HLA-A*11:01; [3]) is reported as 3430 nM and the Kd (HLA-A*03:01; [3]) is reported as 348 nM. The Kd (HLA-A*31:01; [3]) was at least 44600 nM and the Kd (HLA-A*68:01; [3]) was at least 32500 nM.
IISRTRLYDY showed a Kd (HLA-A*33:01; [4]) of at least 70000 nM, a Kd (HLA-A*11:01; [4]) of 1270 nM and a Kd (HLA-A*03:01; [4]) of 225 nM. It also gave a Kd (HLA-A*31:01; [4]) of 13200 nM and a Kd (HLA-A*68:01; [4]) of 4360 nM.
In the case of LIIGPMFSGK, the Kd (HLA-A*33:01; [4]) is reported as 2560 nM, the Kd (HLA-A*11:01; [4]) is reported as 1.81 nM and the Kd (HLA-A*03:01; [4]) is reported as 6.17 nM. For the same sequence, the Kd (HLA-A*31:01; [4]) was 1270 nM and the Kd (HLA-A*68:01; [4]) was 9.92 nM.
SSNVANYQK was tested, and the Kd (HLA-A*33:01; [3]) was at least 77700 nM, the Kd (HLA-A*31:01; [3]) was 4040 nM and the Kd (HLA-A*68:01; [3]) was 54.8 nM.
FIVPEFAKQY showed a Kd (HLA-A*33:01; [4]) of at least 70000 nM, a Kd (HLA-A*11:01; [4]) of at least 69800 nM and a Kd (HLA-A*03:01; [4]) of at least 70100 nM. The Kd (HLA-A*31:01; [4]) was at least 70000 nM and the Kd (HLA-A*68:01; [4]) was 11300 nM.
In the case of LSKSEFNTYK, the Kd (HLA-A*11:01; [6]) is reported as 557 nM.
Work on EMILMKMKK yielded a Kd (HLA-A*68:01; [11]) of 74.2 nM.
TTLWEGSPGK gave a Kd (HLA-A*11:01; [6]) of 85 nM.
In the case of VSTPQGLVK, the Kd (HLA-A*11:01; [11]) is reported as 6890 nM.
With LVTFKTAHAK the Kd (HLA-A*11:01; [6]) was 478 nM and the Kd (HLA-A*03:01; [6]) was 26.2 nM.
AAIDGEYRLK showed a Kd (HLA-A*11:01; [5]) of 349 nM.
EVMRSRWSR showed a Kd (HLA-A*33:01; [6]) of 4.12 nM and a Kd (HLA-A*68:01; [6]) of 13.1 nM.
KVDTRTPRAK showed a Kd (HLA-A*03:01; [6]) of 7.24 nM.
With YLALMATFK the Kd (HLA-A*03:01; [6]) was 7.13 nM.
FIFSLKDTLK showed a Kd (HLA-A*68:01; [5]) of 54.1 nM.
Work on KTDFGFYQVK yielded a Kd (HLA-A*11:01; [11]) of 56 nM and a Kd (HLA-A*03:01; [11]) of 27.4 nM.
